# Experimental data taken from patent US20240317847A1 (Bayer, published 2024).
# Substitutions are numbered along the chain they refer to. Where two headings read alike, the source gives them in different places.
# T1: human IL-11 (human, UniProt P20809 22-199)
# T1 construct: Invigate recombinant protein; biotinylated when immobilized in the Di-complex ELISA; also called hIL11; hIL-11
# T1 sequence: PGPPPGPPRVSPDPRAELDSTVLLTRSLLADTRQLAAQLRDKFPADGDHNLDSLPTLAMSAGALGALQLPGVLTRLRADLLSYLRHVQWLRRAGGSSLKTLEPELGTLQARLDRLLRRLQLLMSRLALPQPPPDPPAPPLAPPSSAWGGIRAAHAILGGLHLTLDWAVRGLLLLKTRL
# T2: murine IL-11 (mouse, UniProt P47873 22-199)
# T2 sequence: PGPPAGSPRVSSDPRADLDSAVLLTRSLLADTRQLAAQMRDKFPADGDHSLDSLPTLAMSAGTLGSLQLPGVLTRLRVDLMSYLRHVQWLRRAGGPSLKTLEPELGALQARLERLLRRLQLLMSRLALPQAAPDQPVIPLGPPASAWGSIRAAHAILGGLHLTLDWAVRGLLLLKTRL
# T3: human IL2Ra (human, UniProt P01589 22-240, limits assumed)
# T3 construct: coated on the ELISA plate; also called IL-2 receptor alpha
# T3 sequence (looked up): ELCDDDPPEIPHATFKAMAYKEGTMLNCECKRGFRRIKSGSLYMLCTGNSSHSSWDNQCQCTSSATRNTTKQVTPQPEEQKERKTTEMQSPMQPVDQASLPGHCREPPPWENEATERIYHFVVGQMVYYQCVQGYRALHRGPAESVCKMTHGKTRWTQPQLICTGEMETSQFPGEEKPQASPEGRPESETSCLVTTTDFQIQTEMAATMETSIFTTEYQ
# T4: cynomolgus IL-11 (cynomolgus, UniProt P20808 22-199)
# T4 sequence: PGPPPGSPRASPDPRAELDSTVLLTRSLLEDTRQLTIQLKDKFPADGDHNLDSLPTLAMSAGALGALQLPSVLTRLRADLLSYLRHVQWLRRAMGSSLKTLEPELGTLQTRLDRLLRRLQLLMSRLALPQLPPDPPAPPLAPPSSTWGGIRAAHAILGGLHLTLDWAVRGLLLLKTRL
# T5: rat IL-11 (rat, UniProt Q99MF5 22-199)
# T5 sequence: T2 sequence with S50N, L84F, G94A, V137A, I138V
# B1: TPP-23580 (antibody, mouse IgG1, kappa)
# heavy: EVQLVQSGAEVKKPGASVKISCKASGYTFTDYNMDWVKQAPGQRLEWIGDINPHNGGPIYNQKFTGRATLTVDKSASTAYMELSSLRSEDTAVYYCARGELGHWYFDVWGQGTTVTVSSAKTTPPSVYPLAPGSAAQTNSMVTLGCLVKGYFPEPVTVTWNSGSLSSGVHTFPAVLQSDLYTLSSSVTVPSSTWPSETVTCNVAHPASSTKVDKKIVPRDCGCKPCICTVPEVSSVFIFPPKPKDVLTITLTPKVTCVVVDISKDDPEVQFSWFVDDVEVHTAQTQPREEQFNSTFRSVSELPIMHQDWLNGKEFKCRVNSAAFPAPIEKTISKTKGRPKAPQVYTIPPPKEQMAKDKVSLTCMITDFFPEDITVEWQWNGQPAENYKNTQPIMDTDGSYFVYSKLNVQKSNWEAGNTFTCSVLHEGLHNHHTEKSLSHSPGK
# light: DIVLTQSPASLALSPGERATLSCRASKSVSTSGYSYIHWYQQKPGQPPRLLIYLASNLDSGVPARFSGSGSGTDFTLNIHPLEEEDFATYYCQHSRDLPPTFGQGTKLEIKRADAAPTVSIFPPSSEQLTSGGASVVCFLNNFYPKDINVKWKIDGSERQNGVLNSWTDQDSKDSTYSMSSTLTLTKDEYERHNSYTCEATHKTSTSPIVKSFNRNEC
# notes: also called BSN 3C6 2.2-2.1-mIgG1Kappa; BSN 3C6 (WO2019238882)
# B2: TPP-29523 (antibody, mouse IgG1)
# heavy: QVQLVESGGGVVQPGRSLRLSCAASGFTFSHYDMHWVRQAPGKGLEWVAVISYEGSVKFYADSVKGRFTISRDNSKNTLYLQMNSLRAEDTAVYYCARTPGFHFDYWGQGTLVTVSSAKTTPPSVYPLAPGSAAQTNSMVTLGCLVKGYFPEPVTVTWNSGSLSSGVHTFPAVLQSDLYTLSSSVTVPSSTWPSETVTCNVAHPASSTKVDKKIVPRDCGCKPCICTVPEVSSVFIFPPKPKDVLTITLTPKVTCVVVDISKDDPEVQFSWFVDDVEVHTAQTQPREEQFNSTFRSVSELPIMHQDWLNGKEFKCRVNSAAFPAPIEKTISKTKGRPKAPQVYTIPPPKEQMAKDKVSLTCMITDFFPEDITVEWQWNGQPAENYKNTQPIMDTDGSYFVYSKLNVQKSNWEAGNTFTCSVLHEGLHNHHTEKSLSHSPGK
# light: QSVLTQPPSASGTPGQRVTISCSGSSSNIGSNYVNWYQQLPGTAPKLLIYYDDLRPSGVPDRFSGSKSGTSASLAISGLRSEDEADYYCSAWDDSLSGVVFGGGTKLTVLGQPKSSPSVTLFPPSSEELETNKATLVCTITDFYPGVVTVDWKVDGTPVTQGMETTQPSKQSNNKYMASSYLTLTARAWERHSSYSCQVTHEGHTVEKSLSRADCS
# notes: mIgG1, Lambda
# B3: TPP-29520 (antibody, mouse IgG1)
# heavy: B2 heavy with E54S, F102S
# light: B2 light
# notes: mIgG1, Lambda
# B4: TPP-29521 (antibody, mouse IgG1)
# heavy: B2 heavy with V57N
# light: B2 light with N35S
# notes: mIgG1, Lambda
# B5: TPP-29522 (antibody, mouse IgG1)
# heavy: B2 heavy with V57N
# light: B2 light
# notes: mIgG1, Lambda
# Key:
# human IL-11 [1] = molecular target: T1, human IL-11; experiment: Tri-complex ELISA, hIL-11 + mIL-11Ra-Fc + hgp130-Fc, inhibition of complex formation
# Experimental: In the Tri-complex ELISA format IL-11 antibodies are tested for their ability to inhibit the formation of a complex consisting of murine or human gp130-Fc fusion protein, with murine or human IL-11, and a murine IL11RA-Fc fusion protein. The assay format was adapted according to FIG. 18 (a, b), depending on whether murine or human IL-11 IgG antibodies were tested.
# (§1) IgG converted antibodies were subjected to the experimental assay procedure described in Example 19 and IC50 [M], respectively efficacy (%) were calculated accordingly.
# human IL-11 [2] = molecular target: T1, human IL-11; experiment: cell-based or functional assay
# murine IL-11 [3] = molecular target: T2, murine IL-11; experiment: cell-based or functional assay
# human IL2Ra = molecular target: T3, human IL2Ra; experiment: ELISA on coated IL2Ra, signal ratio to isotype control TPP-10159 at 3.3E-7 M antibody
# Experimental: IL2RA (Peprotech, Germany, #200-02RC) was coated at 1 or 0 μg/ml (buffer only control) in 30 μl coating buffer (Candor, #113500) per well on a 384 well microtiter plate (Maxisorb, Nunc, #460518) over night at 4-8° C. After two washes with 50 μl/well washing buffer (PBS+0.05% Tween, pH 7.4), the plates were incubated for two hours at room temperature with 50 μl/well SmartBlock (Candor, #113500). After blocking, the plates were washed three times with washing buffer. Then, a dilution series of the respective antibody (1E-7 [M] down to 2E-13 [M]) in PBS+0.05% Tween, 10% SmartBlock were added in 30 μl to the microtiter plate and incubated for 90 min at room temperature. After three additional washes, 30 μl anti mouse IgG HRP-conjugated antibody (Biotechne, HAF007), diluted 1:1000 in PBS+0.05% Tween (pH 7.4), were added per well and incubated for one hour. After three additional washes, a mixture of Amplex red (Invitrogen, #12222, 10 mM stock solution in DMSO) 1:1000 diluted in PBS and H2O2 (30%, Merck, #107209)) diluted 1:10000 in PBS were added as substrate with 30 μl per well and incubated for 20 min in the dark. Relative fluorescence was measured with a microtiter plate reader at 535/590 nm.
# IgG converted antibodies TPP-were tested for binding to IL2Ra as described in Example 20. The ratios of the signals obtained at an antibody concentration of 3.3E-7 [M] for IgG converted antibody versus the isotype control TPP-10159 were calculated and are shown in Table E22.
# murine IL-11 [4] = molecular target: T2, murine IL-11; experiment: Tri-complex ELISA, mIL-11 + mIL-11Ra-Fc + mgp130-Fc, inhibition of complex formation
# Experimental: In a first step, 25 μl of goat anti human IgG (Sigma, #12136), diluted 1:1000 in coating buffer (Candor, #121125) was coated on the plate at 4° C. overnight. Next day, the plate was washed one time with 50 μl PBST and then blocked with 50 μl SmartBlock (Candor, #113125) for one hour at room temperature (RT). […] After three additional washes of the coated and blocked microtiter plate with PBS-T, 25 μl of each mixture were added and the assay plate was incubated for one hour at room temperature. After three additional washes, anti-mouse-gp130 biotinylated antibody (R&D, #BAF468) or anti-human gp130 biotinylated antibody (R&D, #BAF228), both 1:1000 in 10% SmartBlock PBS-T, was added and incubated for 1 hour at RT. After three additional washes, a Streptavidin-Peroxidase conjugate (Sigma, #S5512) 1:1000 in SmartBlock PBS-T was added and incubated for one hour at room temperature. After a final three washes, AmplexRed (Fisher Scientific, A12222), 1/1000 in PBS, 0,003% H₂O₂, was added as substrate and incubated for 15 min at RT in the dark. Then, the fluorescence was measured with a plate reader at 535/595 nm. Signals from dose responses were used to calculate IC50 values using GraphPad Prism software. Efficacy was calculated as [(signal measured at lowest antibody concentration−signal measured at the highest antibody concentration)×100] divided by (signal measured at lowest antibody concentration−signal measured in the absence of antibody at an IL11 concentration of 8.2E-11 [M]).
# as §1
# cynomolgus IL-11 = molecular target: T4, cynomolgus IL-11; experiment: cell-based or functional assay
# human IL-11 [5] = molecular target: T1, human IL-11; experiment: cell-based or functional assay; remark: listed apart in the source
# rat IL-11 = molecular target: T5, rat IL-11; experiment: cell-based or functional assay
# murine IL-11 [6] = molecular target: T2, murine IL-11; experiment: cell-based or functional assay; remark: listed apart in the source
Efficacy (%) (human IL-11 [1]),IC50 (human IL-11 [1]) [nM],"Efficacy (%), Stat3 reporter gene assay (human IL-11 [2]) [%]","IC50, Stat3 reporter gene assay (human IL-11 [2]) [nM]","Efficacy (%), Stat3 reporter gene assay (murine IL-11 [3]) [%]","IC50, Stat3 reporter gene assay (murine IL-11 [3]) [nM]",Antibody/Isotype Control Ratio of IL-2Ra Binding Signals (human IL2Ra) [ratio],Efficacy (%) (murine IL-11 [4]),IC50 (murine IL-11 [4]) [nM],"Efficacy (%), Stat3 reporter gene assay (cynomolgus IL-11) [%]","Efficacy (%), Stat3 reporter gene assay (human IL-11 [5]) [%]","Efficacy (%), Stat3 reporter gene assay (rat IL-11) [%]","IC50, Stat3 reporter gene assay (rat IL-11) [nM]","Efficacy (%), Stat3 reporter gene assay (murine IL-11 [6]) [%]","IC50, Stat3 reporter gene assay (murine IL-11 [6]) [nM]",Binder
45.8,3.4,68.6,8.7,46.7,28,2.2,45.8,31,21.9,64,62.2,14,88.9,7.9,B1
84.3,2.1,,,,,1.2,84.3,0.12,,,,,,,B2
81.8,1.3,,,,,0.6,81.8,0.13,,,,,,,B3
85.7,1.8,,,,,0.7,85.7,0.092,,,,,,,B4
85.4,2,,,,,0.7,85.4,0.11,,,,,,,B5
